Measured values: patent US20200231654A1 (published 2020)

Experiments:
active hMMP-9(cat)_His6 = active hMMP-9(cat)_His6 (UniProt P14780 107-449); test: enzyme inhibition; substrate gelatin
[1] = molecular target: biotin-labeled active hMMP-9(cat)_FLAG_Avi (UniProt P14780 107-449, biotin on the Avi tag (biotin ligase BirA)); test: ELISA
[2] = molecular target: MMP-12 (catalytic domain) (human), (recombinant) (human, UniProt P39900 106-263); test: enzyme inhibition
[3] = molecular target: T1, Recombinant Human MMP-17 Protein, CF (human, UniProt Q9ULZ9 36-565); test: enzyme inhibition
T1 chain: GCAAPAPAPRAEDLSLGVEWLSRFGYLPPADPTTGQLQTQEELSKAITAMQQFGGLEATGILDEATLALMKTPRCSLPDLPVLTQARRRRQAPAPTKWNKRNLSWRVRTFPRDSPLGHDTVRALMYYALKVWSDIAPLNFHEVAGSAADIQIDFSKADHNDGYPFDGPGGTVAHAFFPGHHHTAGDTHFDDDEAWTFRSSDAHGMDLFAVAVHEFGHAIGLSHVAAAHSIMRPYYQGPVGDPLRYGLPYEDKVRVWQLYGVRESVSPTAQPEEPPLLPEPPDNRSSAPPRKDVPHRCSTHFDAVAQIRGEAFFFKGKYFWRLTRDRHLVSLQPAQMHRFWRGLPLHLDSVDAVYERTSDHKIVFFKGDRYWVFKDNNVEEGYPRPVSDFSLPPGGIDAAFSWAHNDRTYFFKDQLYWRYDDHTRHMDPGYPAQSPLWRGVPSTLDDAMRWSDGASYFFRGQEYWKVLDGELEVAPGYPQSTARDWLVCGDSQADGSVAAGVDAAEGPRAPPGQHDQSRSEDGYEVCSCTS

[4] = molecular target: MT2-MMP, Catalytic Domain, Human, Recombinant, E. coli (human, UniProt P51511 132-304); test: enzyme inhibition
[5] = molecular target: T2, APMA-activated human MMP-1 enzyme active domain (human, UniProt P03956 100-269); test: enzyme inhibition
T2 chain: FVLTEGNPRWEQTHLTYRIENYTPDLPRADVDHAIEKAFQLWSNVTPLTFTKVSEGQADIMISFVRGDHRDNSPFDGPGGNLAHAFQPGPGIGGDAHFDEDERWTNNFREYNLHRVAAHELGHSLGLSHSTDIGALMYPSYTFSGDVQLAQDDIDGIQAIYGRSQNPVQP

[6] = molecular target: Recombinant Human MMP-16/MT3-MMP Protein, CF (human, UniProt P51512 32-564); test: enzyme inhibition
[7] = molecular target: human MMP-3 activated by APMA (human, UniProt P08254 100-477); test: enzyme inhibition
[8] = molecular target: T3, ADAM17 (catalytic domain) (human), (recombinant) (His-tag) (human, UniProt P78536 215-477); test: enzyme inhibition
T3 chain: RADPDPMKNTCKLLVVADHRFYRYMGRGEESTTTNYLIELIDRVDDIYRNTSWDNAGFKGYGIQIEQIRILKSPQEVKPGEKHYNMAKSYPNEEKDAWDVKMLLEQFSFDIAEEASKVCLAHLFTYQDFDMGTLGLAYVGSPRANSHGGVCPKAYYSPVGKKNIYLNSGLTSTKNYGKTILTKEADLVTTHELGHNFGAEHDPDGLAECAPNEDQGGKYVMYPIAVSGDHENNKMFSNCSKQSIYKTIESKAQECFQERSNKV

[9] = molecular target: MMP-10 (catalytic domain) (human), (recombinant) (human, UniProt P09238 99-266); test: enzyme inhibition
[10] = molecular target: MMP14 Recombinant Protein (human, UniProt P50281 112-287); test: enzyme inhibition
[11] = molecular target: T4, MMP-7 (catalytic domain) (human), (recombinant) (human, UniProt P09237 95-267); test: enzyme inhibition
T4 chain: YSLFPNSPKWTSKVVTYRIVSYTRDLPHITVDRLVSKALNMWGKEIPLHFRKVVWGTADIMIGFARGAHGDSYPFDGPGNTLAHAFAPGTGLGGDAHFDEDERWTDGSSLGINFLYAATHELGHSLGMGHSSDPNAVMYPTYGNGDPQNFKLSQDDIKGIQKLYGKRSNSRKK

[12] = molecular target: APMA-activated human MMP-8 enzyme active domain (human, UniProt P22894 101-262); test: enzyme inhibition
[13] = molecular target: APMA-activated human MMP-13 enzyme active domain (human, UniProt P45452 104-274); test: enzyme inhibition

Sequence of Recombinant Human MMP-16/MT3-MMP Protein, CF (P51512 32-564): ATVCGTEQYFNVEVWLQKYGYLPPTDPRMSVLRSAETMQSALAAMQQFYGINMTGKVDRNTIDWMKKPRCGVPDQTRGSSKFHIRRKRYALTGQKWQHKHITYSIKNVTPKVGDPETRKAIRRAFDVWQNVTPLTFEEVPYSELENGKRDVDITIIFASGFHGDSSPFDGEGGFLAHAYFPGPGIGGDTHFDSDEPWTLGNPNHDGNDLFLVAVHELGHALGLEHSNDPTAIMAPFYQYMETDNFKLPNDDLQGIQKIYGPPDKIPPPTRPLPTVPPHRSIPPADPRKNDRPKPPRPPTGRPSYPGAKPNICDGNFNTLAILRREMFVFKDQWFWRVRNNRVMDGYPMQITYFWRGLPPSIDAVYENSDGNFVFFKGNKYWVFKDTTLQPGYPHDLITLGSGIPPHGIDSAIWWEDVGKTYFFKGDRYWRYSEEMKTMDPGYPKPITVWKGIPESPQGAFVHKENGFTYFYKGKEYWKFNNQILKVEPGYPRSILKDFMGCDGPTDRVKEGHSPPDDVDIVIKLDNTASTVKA
Sequence of biotin-labeled active hMMP-9(cat)_FLAG_Avi (P14780 other isoform, or with tags, fused parts or gaps): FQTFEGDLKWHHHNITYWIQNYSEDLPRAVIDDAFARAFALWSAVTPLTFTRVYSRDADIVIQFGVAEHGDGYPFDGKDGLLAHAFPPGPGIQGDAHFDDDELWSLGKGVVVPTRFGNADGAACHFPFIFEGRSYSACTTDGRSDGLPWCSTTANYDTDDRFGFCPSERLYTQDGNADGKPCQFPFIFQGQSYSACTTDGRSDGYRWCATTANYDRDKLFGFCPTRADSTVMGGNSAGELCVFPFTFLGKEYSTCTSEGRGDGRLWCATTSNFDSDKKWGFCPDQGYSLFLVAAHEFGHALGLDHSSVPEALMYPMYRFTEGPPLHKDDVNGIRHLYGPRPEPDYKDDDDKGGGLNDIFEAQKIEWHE
Sequence of MMP-10 (catalytic domain) (human), (recombinant) (P09238 99-266): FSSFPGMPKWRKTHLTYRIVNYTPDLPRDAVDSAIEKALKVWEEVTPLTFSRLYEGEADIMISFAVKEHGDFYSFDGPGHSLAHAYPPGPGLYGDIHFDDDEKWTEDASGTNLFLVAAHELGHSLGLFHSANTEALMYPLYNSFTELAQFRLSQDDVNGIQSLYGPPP
Sequence of APMA-activated human MMP-8 enzyme active domain (P22894 101-262): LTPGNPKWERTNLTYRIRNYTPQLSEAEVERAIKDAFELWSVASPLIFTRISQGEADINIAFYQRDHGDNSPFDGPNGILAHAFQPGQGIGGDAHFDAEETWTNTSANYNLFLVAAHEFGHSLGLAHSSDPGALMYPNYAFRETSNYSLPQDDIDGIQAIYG
Sequence of human MMP-3 activated by APMA (P08254 100-477): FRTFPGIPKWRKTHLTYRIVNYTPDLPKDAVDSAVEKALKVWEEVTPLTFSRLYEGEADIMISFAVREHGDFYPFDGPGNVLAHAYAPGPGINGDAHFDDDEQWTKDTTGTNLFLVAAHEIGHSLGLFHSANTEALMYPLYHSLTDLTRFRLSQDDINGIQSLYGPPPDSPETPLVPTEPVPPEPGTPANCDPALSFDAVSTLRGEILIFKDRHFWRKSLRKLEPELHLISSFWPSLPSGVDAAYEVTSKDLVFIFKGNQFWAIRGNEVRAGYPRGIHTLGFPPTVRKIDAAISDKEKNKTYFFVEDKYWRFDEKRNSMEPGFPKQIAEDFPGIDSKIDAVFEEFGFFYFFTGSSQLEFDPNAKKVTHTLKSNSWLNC
Sequence of MMP-12 (catalytic domain) (human), (recombinant) (P39900 106-263): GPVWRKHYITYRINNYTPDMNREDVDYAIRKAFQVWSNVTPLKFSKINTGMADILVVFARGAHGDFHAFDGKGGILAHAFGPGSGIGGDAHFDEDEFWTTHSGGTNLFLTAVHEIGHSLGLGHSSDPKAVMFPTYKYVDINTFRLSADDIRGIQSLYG
Sequence of MT2-MMP, Catalytic Domain, Human, Recombinant, E. coli (P51511 132-304): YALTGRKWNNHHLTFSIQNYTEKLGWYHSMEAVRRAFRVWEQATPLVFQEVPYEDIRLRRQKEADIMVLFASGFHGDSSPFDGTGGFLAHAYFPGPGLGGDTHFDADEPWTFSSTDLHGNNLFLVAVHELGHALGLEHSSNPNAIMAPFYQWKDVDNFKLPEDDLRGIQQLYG
Sequence of active hMMP-9(cat)_His6 (P14780 107-449): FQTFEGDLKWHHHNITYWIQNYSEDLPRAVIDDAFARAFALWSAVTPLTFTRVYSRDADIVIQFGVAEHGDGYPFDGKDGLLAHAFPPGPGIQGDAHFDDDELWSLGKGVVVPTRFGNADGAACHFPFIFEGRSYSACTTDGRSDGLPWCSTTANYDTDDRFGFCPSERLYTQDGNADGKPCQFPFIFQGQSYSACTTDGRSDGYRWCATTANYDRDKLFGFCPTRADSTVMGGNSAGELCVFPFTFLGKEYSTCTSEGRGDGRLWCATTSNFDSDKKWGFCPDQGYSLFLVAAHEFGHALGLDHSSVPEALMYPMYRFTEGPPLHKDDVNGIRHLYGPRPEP

B1: active MMP-9-binding peptide M91004 (designed binder)
chain: GSGMKETAAAKFERQHMDSPDLGTDDDDKAMADIGSANSDPQFGLFSKYRTPNCRQRKGPSCQMAFQPVCGSDMSTYANECTLCMKIREGGHNIKIIRNGPCGASAAA
- IC50 (active hMMP-9(cat)_His6): 0.0076 µM
- EC50 [1]: 0.042 µM
- IC50 [2]: > 1 µM
- IC50 [3]: > 1 µM
- IC50 [4]: > 1 µM
- IC50 [5]: > 1 µM
- IC50 [6]: > 1 µM
- IC50 [7]: > 1 µM
- IC50 [8]: > 1 µM
- IC50 [9]: > 1 µM
- IC50 [10]: > 1 µM
- IC50 [11]: > 1 µM
- IC50 [12]: > 1 µM
- IC50 [13]: > 1 µM

B2: active MMP-9-binding peptide M91002 (designed binder)
chain: GSGMKETAAAKFERQHMDSPDLGTDDDDKAMADIGSANSDPQFGLFSKYRTPNCRTGRGPACQMGFQPVCGSDMSTYANECTLCMKIREGGHNIKIIRNGPCGASAAA
- IC50 (active hMMP-9(cat)_His6): 0.0085 µM
- EC50 [1]: 0.047 µM
- IC50 [2]: > 1 µM
- IC50 [3]: > 1 µM
- IC50 [4]: > 1 µM
- IC50 [5]: > 1 µM
- IC50 [6]: > 1 µM
- IC50 [7]: > 1 µM
- IC50 [8]: > 1 µM
- IC50 [9]: > 1 µM
- IC50 [10]: > 1 µM
- IC50 [11]: > 1 µM
- IC50 [12]: > 1 µM
- IC50 [13]: > 1 µM

B3: active MMP-9-binding peptide M91011 (designed binder)
chain: GSGMKETAAAKFERQHMDSPDLGTDDDDKAMADIGSANSDPQFGLFSKYRTPNCMMYKYAQCSHKSQPVCGSDMSTYANECTLCMKIREGGHNIKIIRNGPCGASAAA
- EC50 [1]: 0.016 µM
- IC50 [2]: > 1 µM
- IC50 [3]: > 1 µM
- IC50 [4]: > 1 µM
- IC50 [5]: > 1 µM
- IC50 [6]: > 1 µM
- IC50 [7]: > 1 µM
- IC50 [8]: > 1 µM
- IC50 [9]: > 1 µM
- IC50 [10]: > 1 µM
- IC50 [11]: > 1 µM
- IC50 [12]: > 1 µM
- IC50 [13]: > 1 µM

B4: active MMP-9-binding peptide M91010 (designed binder)
chain: GSGMKETAAAKFERQHMDSPDLGTDDDDKAMADIGSANSDPQFGLFSKYRTPNCRKVGEPACQMSFNPVCGSDMSTYANECTLCMKIREGGHNIKIIRNGPCGASAAA
- IC50 (active hMMP-9(cat)_His6): 0.0058 µM
- EC50 [1]: 0.048 µM
- IC50 [2]: > 1 µM
- IC50 [3]: > 1 µM
- IC50 [4]: > 1 µM
- IC50 [5]: > 1 µM
- IC50 [6]: > 1 µM
- IC50 [7]: > 1 µM
- IC50 [8]: > 1 µM
- IC50 [9]: > 1 µM
- IC50 [10]: > 1 µM
- IC50 [11]: > 1 µM
- IC50 [12]: > 1 µM
- IC50 [13]: > 1 µM

B5: active MMP-9-binding peptide M91005 (designed binder)
chain: GSGMKETAAAKFERQHMDSPDLGTDDDDKAMADIGSANSDPQFGLFSKYRTPNCRKRGGPSCQMSYNPVCGSDMSTYANECTLCMKIREGGHNIKIIRNGPCGASAAA
- IC50 (active hMMP-9(cat)_His6): 0.0082 µM
- EC50 [1]: 0.046 µM
- IC50 [2]: > 1 µM
- IC50 [3]: > 1 µM
- IC50 [4]: > 1 µM
- IC50 [5]: > 1 µM
- IC50 [6]: > 1 µM
- IC50 [7]: > 1 µM
- IC50 [8]: > 1 µM
- IC50 [9]: > 1 µM
- IC50 [10]: > 1 µM
- IC50 [11]: > 1 µM
- IC50 [12]: > 1 µM
- IC50 [13]: > 1 µM

B6: active MMP-9-binding peptide M91001 (designed binder)
chain: GSGMKETAAAKFERQHMDSPDLGTDDDDKAMADIGSANSDPQFGLFSKYRTPNCQRGIGPSCQMSYKPVCGSDMSTYANECTLCMKIREGGHNIKIIRNGPCGASAAA
- IC50 (active hMMP-9(cat)_His6): 0.0083 µM
- EC50 [1]: 0.022 µM
- IC50 [2]: > 1 µM
- IC50 [3]: > 1 µM
- IC50 [4]: > 1 µM
- IC50 [5]: > 1 µM
- IC50 [6]: > 1 µM
- IC50 [7]: > 1 µM
- IC50 [8]: > 1 µM
- IC50 [9]: > 1 µM
- IC50 [10]: > 1 µM
- IC50 [11]: > 1 µM
- IC50 [12]: > 1 µM
- IC50 [13]: > 1 µM

B7: active MMP-9-binding peptide M91012 (designed binder)
chain: GSGMKETAAAKFERQHMDSPDLGTDDDDKAMADIGSANSDPQFGLFSKYRTPNCRVRGGPSCQMSFNPVCGSDMSTYANECTLCMKIREGGHNIKIIRNGPCGASAAA
- IC50 (active hMMP-9(cat)_His6): 0.0086 µM
- EC50 [1]: 0.046 µM
- IC50 [2]: > 1 µM
- IC50 [3]: > 1 µM
- IC50 [4]: > 1 µM
- IC50 [5]: > 1 µM
- IC50 [6]: > 1 µM
- IC50 [7]: > 1 µM
- IC50 [8]: > 1 µM
- IC50 [9]: > 1 µM
- IC50 [10]: > 1 µM
- IC50 [11]: > 1 µM
- IC50 [12]: > 1 µM
- IC50 [13]: > 1 µM

B8: active MMP-9-binding peptide M91014 (designed binder)
chain: GSGMKETAAAKFERQHMDSPDLGTDDDDKAMADIGSANSDPQFGLFSKYRTPNCVMYKYAQCSHKYKPVCGSDMSTYANECTLCMKIREGGHNIKIIRNGPCGASAAA
- IC50 (active hMMP-9(cat)_His6): 0.003 µM
- EC50 [1]: 0.008 µM
- IC50 [2]: > 1 µM
- IC50 [3]: > 1 µM
- IC50 [4]: > 1 µM
- IC50 [5]: > 1 µM
- IC50 [6]: > 1 µM
- IC50 [7]: > 1 µM
- IC50 [8]: > 1 µM
- IC50 [9]: > 1 µM
- IC50 [10]: > 1 µM
- IC50 [11]: > 1 µM
- IC50 [12]: > 1 µM
- IC50 [13]: > 1 µM
